This is an account of results in patent publication US20220288219A1 (MYTHIC THERAPEUTICS, published 2022).

Where a chain is given by its changes, count along the chain named. Names may count otherwise.

The chains are these.
T1: CD22 (Acro Biosystems, Cat #CD2-H52H8) (UniProt P20273 20-687)
T1 construct: soluble analyte, 50 nM in BLI; also called Acro Biosystems antigen
T1 sequence (looked up): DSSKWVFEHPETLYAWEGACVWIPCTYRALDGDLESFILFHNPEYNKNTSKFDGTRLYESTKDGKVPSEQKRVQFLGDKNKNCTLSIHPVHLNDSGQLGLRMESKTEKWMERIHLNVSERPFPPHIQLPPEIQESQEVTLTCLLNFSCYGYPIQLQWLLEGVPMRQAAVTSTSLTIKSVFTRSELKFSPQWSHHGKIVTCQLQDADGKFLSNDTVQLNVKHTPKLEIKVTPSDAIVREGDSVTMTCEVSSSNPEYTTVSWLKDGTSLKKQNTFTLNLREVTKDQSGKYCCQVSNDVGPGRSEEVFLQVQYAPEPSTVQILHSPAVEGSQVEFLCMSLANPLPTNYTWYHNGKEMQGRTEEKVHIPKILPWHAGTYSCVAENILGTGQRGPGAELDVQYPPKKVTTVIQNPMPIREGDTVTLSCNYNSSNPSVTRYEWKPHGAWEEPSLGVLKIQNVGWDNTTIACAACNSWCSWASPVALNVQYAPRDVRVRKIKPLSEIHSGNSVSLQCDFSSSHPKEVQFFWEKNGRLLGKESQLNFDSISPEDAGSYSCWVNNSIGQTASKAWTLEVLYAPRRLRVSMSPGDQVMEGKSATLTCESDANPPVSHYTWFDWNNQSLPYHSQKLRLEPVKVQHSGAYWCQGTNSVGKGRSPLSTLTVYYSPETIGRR

T2: CD22 Protein (His Tag), Sino Biological Cat. No. 11958-H08H (UniProt P20273 20-687)
T2 construct: soluble analyte, 50 nM in BLI; also called Sino Biological antigen
T2 sequence (looked up): T1 sequence (looked up)

T3: cell surface CD22 on Ramos (CD22+) cells (human, UniProt P20273 20-847)
T3 construct: whole, on cells; also called CD22 on WSU-DLCL2, MHH-PREB-1 and Raji cells
T3 sequence (looked up): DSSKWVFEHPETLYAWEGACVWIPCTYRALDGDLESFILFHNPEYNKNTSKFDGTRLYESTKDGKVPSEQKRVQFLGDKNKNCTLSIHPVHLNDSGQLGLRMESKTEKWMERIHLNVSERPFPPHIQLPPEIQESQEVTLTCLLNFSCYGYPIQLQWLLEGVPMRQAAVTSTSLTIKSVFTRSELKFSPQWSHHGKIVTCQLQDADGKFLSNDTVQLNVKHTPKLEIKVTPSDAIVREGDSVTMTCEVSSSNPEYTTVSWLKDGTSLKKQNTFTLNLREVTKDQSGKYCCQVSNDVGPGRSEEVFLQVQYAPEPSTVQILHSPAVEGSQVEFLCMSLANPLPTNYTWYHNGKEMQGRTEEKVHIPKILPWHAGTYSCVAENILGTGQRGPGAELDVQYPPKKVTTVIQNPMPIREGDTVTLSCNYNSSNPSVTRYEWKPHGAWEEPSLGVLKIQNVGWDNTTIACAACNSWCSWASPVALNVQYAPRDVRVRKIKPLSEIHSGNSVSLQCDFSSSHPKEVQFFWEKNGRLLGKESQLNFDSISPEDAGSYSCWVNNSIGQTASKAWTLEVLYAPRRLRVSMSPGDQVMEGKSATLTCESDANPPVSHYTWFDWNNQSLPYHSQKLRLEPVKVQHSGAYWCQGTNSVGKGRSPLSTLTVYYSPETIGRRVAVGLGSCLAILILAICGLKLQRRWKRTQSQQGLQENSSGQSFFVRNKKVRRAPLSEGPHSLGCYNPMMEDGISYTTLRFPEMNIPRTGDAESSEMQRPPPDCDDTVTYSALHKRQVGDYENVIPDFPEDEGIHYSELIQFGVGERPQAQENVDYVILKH

B1: MYT0520 (antibody, V domains shown)
VH: EVQLVQSGAEVKKPGASVKVSCKASGHRFTNYWIHWVRQAPGQGLEWIGGINPGNNYATYRRKFQGRVTMTADTSTSTVYMELSSLRSEDTAVYYCTREGYGNYGAWFAYWGQGTLVTVSS
VL: DVQVTQSPSSLSASVGDRVTITCRSSQSLANSYGNTFLSWYLHKPGKAPQLLIYGISNRFSGVPDRFSGSGSGTDFTLTISSLQPEDFATYYCLQGTHQPYTFGQGTKVEIK
notes: inotuzumab VH Y27H; tie by order
B2: MYT0536 (antibody, V domains shown)
VH: B1 VH with H27Y, Y57H
VL: B1 VL
notes: inotuzumab VH Y57H; tie by order
B3: pinatuzumab (antibody, V domains shown)
VH: EVQLVESGGGLVQPGGSLRLSCAASGYEFSRSWMNWVRQAPGKGLEWVGRIYPGDGDTNYSGKFKGRFTISADTSKNTAYLQMNSLRAEDTAVYYCARDGSSWDWYFDVWGQGTLVTVSS
VL: DIQMTQSPSSLSASVGDRVTITCRSSQSIVHSVGNTFLEWYQQKPGKAPKLLIYKVSNRFSGVPSRFSGSGSGTDFTLTISSLQPEDFATYYCFQGSQFPYTFGQGTKVEIK
notes: IgG from Expi293; also called MYT1293; PINATUZUMAB starting ABPC
B4: MYT1331 (antibody, V domains shown)
VH: B3 VH with F107H
VL: B3 VL
notes: pinatuzumab VH F107H; tie by order
B5: MYT4405 (antibody, V domains shown)
VH: B1 VH with H27Y, N31H, N103H
VL: B1 VL
notes: inotuzumab VH N31H+N103H; tie by order
B6: MYT4424 (antibody, V domains shown)
VH: B1 VH with H27Y, N31H, T59H, N103H
VL: B1 VL
notes: inotuzumab VH N31H+T59H+N103H; tie by order
B7: inotuzumab (antibody, V domains shown)
VH: B1 VH with H27Y
VL: B1 VL
notes: IgG from Expi293, captured by anti-human Fc; entries headed heavy/light chain hold only the variable domains; also called MYT0518; INOTUZUMAB starting ABPC
B8: MYT1523 (antibody, V domains shown)
VH: QVQLVQSGAEVKKPGSSVKVSCKASGYTFTSYWLHWVRQAPGQGLEWIGYINPRNDYTEYNQNFKDKATITADESTNTAYMELSSLRSEDTAFYFCHRRDITTFYWGQGTTVTVSS
VL: DIQLTQSPSSLSASVGDRVTMSCKSSQSVLYSANHKNYLAWYQQKPGKAPKLLIYWASTRESGVPSRFSGSGSGTDFTFTISSLQPEDIATYYCHQYLSSWTFGGGTKVQIK
notes: ADCT-602 VH A97H; tie by order
B9: MYT1526 (antibody, V domains shown)
VH: B8 VH with H97A, D100H
VL: B8 VL
notes: ADCT-602 VH D100H; tie by order
B10: MYT1529 (antibody, V domains shown)
VH: B8 VH with H97A, T103H
VL: B8 VL
notes: ADCT-602 VH T103H; tie by order
B11: MYT1525 (antibody, V domains shown)
VH: B8 VH with H97A, R99H
VL: B8 VL
notes: ADCT-602 VH R99H; tie by order
B12: MYT1527 (antibody, V domains shown)
VH: B8 VH with H97A, I101H
VL: B8 VL
notes: ADCT-602 VH I101H; tie by order
B13: MYT4624 (antibody, V domains shown)
VH: QVQLVQSGSELKKPGASVKVSCKASGYTFTSYHMNWVRQAPGQGLEWMGWINTNTGNPTYAQGFTGRFVFSLDTSVSTAYLQISSLKAEDTAVYYCARLFYYYFGMDVWGQGTTVTVSS
VL: QSALTQPASVSGSPGQSITISCTGTSSDVGSYNLVSWYQLHPGKAPKLMIYEVSKRPSGVSNRFSGSRSGNTASLTISGLQAEDEADYYCCSYANSSTLVFGGGTKLTVL
notes: 12C5 VH A33H; tie by order
B14: MYT4649 (antibody, V domains shown)
VH: B13 VH with H33A, F104H
VL: B13 VL
notes: 12C5 VH F104H; tie by order
B15: MYT4651 (antibody, V domains shown)
VH: B13 VH with H33A, M106H
VL: B13 VL
notes: 12C5 VH M106H; tie by order
B16: MYT4626 (antibody, V domains shown)
VH: B13 VH with H33A, N35H
VL: B13 VL
notes: 12C5 VH N35H; tie by order
B17: MYT4650 (antibody, V domains shown)
VH: B13 VH with H33A, G105H
VL: B13 VL
notes: 12C5 VH G105H; tie by order
B18: MYT4715 (antibody, V domains shown)
VH: QVQLQQWGAGLLKPSETLSLTCAVYGRSFSSYYWSWIRQPPGKGLEWIGDIQHSGSTNYNPSLKSRVTISVDTSKNQFSLKLSSVTAADTAVYYCHGTFYDILTGYYPLGYWGPGTLVTVSS
VL: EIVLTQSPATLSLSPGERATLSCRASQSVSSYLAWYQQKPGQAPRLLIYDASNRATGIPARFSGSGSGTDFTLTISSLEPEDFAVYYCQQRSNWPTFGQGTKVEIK
notes: 19A3 VH A96H; tie by order
B19: MYT4718 (antibody, V domains shown)
VH: B18 VH with H96A, F99H
VL: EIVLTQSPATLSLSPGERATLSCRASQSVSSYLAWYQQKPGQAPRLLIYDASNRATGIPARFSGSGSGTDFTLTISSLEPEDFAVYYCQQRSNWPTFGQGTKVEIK
notes: 19A3 VH F99H; tie by order
B20: MYT4720 (antibody, V domains shown)
VH: B18 VH with H96A, D101H
VL: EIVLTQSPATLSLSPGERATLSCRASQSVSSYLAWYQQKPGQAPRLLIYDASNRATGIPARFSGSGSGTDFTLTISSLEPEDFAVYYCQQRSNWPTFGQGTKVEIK
notes: 19A3 VH D101H; tie by order
B21: MYT4723 (antibody, V domains shown)
VH: B18 VH with H96A, T104H
VL: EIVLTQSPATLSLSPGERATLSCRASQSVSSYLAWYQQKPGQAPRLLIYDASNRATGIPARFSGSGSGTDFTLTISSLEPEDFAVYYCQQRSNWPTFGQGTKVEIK
notes: 19A3 VH T104H; tie by order

In one assay the target is T1, CD22 (Acro Biosystems, Cat #CD2-H52H8). Put plainly: BLI, IgG on anti-human Fc sensor, 50 nM CD22. In general terms: Biolayer interferometry detects binding as a change in optical thickness at a sensor tip.
Turning to B1, the binding result is given as “binds”. On to B2, for which the binding result is “binds”.

A further assay concerns the target T2, CD22 Protein (His Tag), Sino Biological …. Put plainly: BLI, IgG on anti-human Fc sensor, 50 nM CD22.
For the molecule B1, the binding result is “binds”. As for B2, the binding result is “binds”.

Another assay addresses T3, cell surface CD22 on Ramos (CD22+) cells. As to the kind of experiment: flow cytometry, antibody titration on Ramos (CD22+) cells, AF488 anti-human IgG. On the procedure:
100,000 cells per well were resuspended in 900 μL FC buffer in a 96 well deep well plate. Pinatuzumab, Inotuzumab, and pH engineered antibody variants were serially diluted at a 1:3 dilution. 100 μL of diluted antibody was added to each well with final concentration ranging from ˜100 nM to 0.024 pM and incubated for 2 hours at 4° C. Post incubation, the cells were spun at 2000 rpm for 2 min and supernatant was discarded. Cells were washed twice with 500 μL of ice-cold FC buffer and resuspended with 100 μL of FC buffer. The cells were then transferred from the deep well plate to 96 well round bottom plate, spun at 2000 rpm for 2 min and incubated with 100 μL of 10 μg/mL Alexa Fluor 488 conjugated goat anti-human IgG secondary antibody (ThermoFisher Scientific, A11013) for 30 min. Post incubation, cells were washed with FC buffer and resuspended in 100 μL of FC buffer to read on a BD Accuri C6 flow cytometer. Binding affinity was measured as a dissociation constant KD by GraphPad Prism assuming Michaelis-Menten binding kinetics. MYT1331, MYT4405 and MYT4424 show high affinity binding to cell surface CD22 on Ramos cells in the pM-nM range confirming that variants created through pH engineering can retain functionally appropriate affinities as compared to their corresponding starting ABPCs (e.g., inotuzumab or pinatuzumab).
(A flow cytometer gives signals particle by particle.)
By IC50 is commonly meant the concentration needed to halve the response being measured. Lower therefore signals inhibition by little substance. B3: inhibition was half-maximal at 0.362 nM (IC50). With B4, the IC50 amounted to 0.395 nM. For B5, the IC50 was found to be 0.24 nM. The same measure, in the same setting: then B6, with 0.115 nM; and B7, with 0.075 nM.

Another assay deals with T2, CD22 Protein (His Tag), Sino Biological …. Put plainly: BLI, IgG on anti-human Fc sensor.
As for B8, the binding result is on record as “no binding (tested: 50 nM)”. As for B9, the binding result is “no binding (tested: 50 nM)”. With B10, the binding result is “no binding (tested: 50 nM)”. For the molecule B11, the binding result is listed as “no binding (tested: 50 nM)”. Same read-out and setting: then B12, with “no binding (tested: 50 nM)”; and B13, with “no binding (tested: 50 nM)”.

B14: the binding result is reported as “no binding (tested: 50 nM)”. On to B15, for which the binding result is recorded as “no binding (tested: 50 nM)”. As for B16, the binding result is “no binding (tested: 50 nM)”. Same read-out and setting: the same measure for B17: “no binding (tested: 50 nM)”; for B18: “no binding (tested: 50 nM)”.

For the molecule B19, the binding result is given as “no binding (tested: 50 nM)”. Consider B20, for which the binding result was “no binding (tested: 50 nM)”. For B21, the binding result was “no binding (tested: 50 nM)”.
